The text below walks through data of US7851182 (CONARIS RESEARCH INSTITUTE, dated 2010).

The labels stand for the following.
B1: sgp130(D1-D3)S2-Fc (Fc fusion)
chain: ELLDPCGYISPESPVVQLHSNFTAVCVLKEKCMDYFHVNANYIVWKTNHFTIPKEQYTIINRTASSVTFTDIASLNIQLTCNILTFGQLEQNVYGITIISGLPPEKPKNLSCIVNEGKKMRCEWDGGRETHLETNFTLKSEWATHKFADCKAKRDTPTSCTVDYSTVYFVNIEVWVEAENALGKVTSDHINFDPVYKVKPNPPHNLSVINSEELSSILKLTWTNPSIKSVIILKYNIQYRTKDASTWSQIPPEDTASTRSSFTVQDLKPFTEYVFRIRCMKEDGKGYWSDWSEEASGITYEDGGGGSGGGGS
notes: D4-D6 replaced by two GGGGS repeats; No tags; not shown: IgG-Fc part; its beginning is printed as 'SCD'; detected with an anti-human IgG (Fc) antibody
B2: sgp130(D1-D3)S3-Fc (Fc fusion)
chain: ELLDPCGYISPESPVVQLHSNFTAVCVLKEKCMDYFHVNANYIVWKTNHFTIPKEQYTIINRTASSVTFTDIASLNIQLTCNILTFGQLEQNVYGITIISGLPPEKPKNLSCIVNEGKKMRCEWDGGRETHLETNFTLKSEWATHKFADCKAKRDTPTSCTVDYSTVYFVNIEVWVEAENALGKVTSDHINFDPVYKVKPNPPHNLSVINSEELSSILKLTWTNPSIKSVIILKYNIQYRTKDASTWSQIPPEDTASTRSSFTVQDLKPFTEYVFRIRCMKEDGKGYWSDWSEEASGITYEDGGGGSGGGGSGGGGS
notes: D4-D6 replaced by three GGGGS repeats; No tags; not shown: IgG-Fc part; its beginning is printed as 'SCD'; detected with an anti-human IgG (Fc) antibody
B3: sgp130(D1-D3)S0-Fc (Fc fusion)
chain: ELLDPCGYISPESPVVQLHSNFTAVCVLKEKCMDYFHVNANYIVWKTNHFTIPKEQYTIINRTASSVTFTDIASLNIQLTCNILTFGQLEQNVYGITIISGLPPEKPKNLSCIVNEGKKMRCEWDGGRETHLETNFTLKSEWATHKFADCKAKRDTPTSCTVDYSTVYFVNIEVWVEAENALGKVTSDHINFDPVYKVKPNPPHNLSVINSEELSSILKLTWTNPSIKSVIILKYNIQYRTKDASTWSQIPPEDTASTRSSFTVQDLKPFTEYVFRIRCMKEDGKGYWSDWSEEASGITYED
notes: No spacer between D3 and Fc; V5 and 6xHis tags are not present; also called sgp130(D1-D3)Fc; sgp130(D1-3)Fc; not shown: IgG-Fc part; its beginning is printed as 'SCD'; detected with an anti-human IgG (Fc) antibody
B4: sgp130(D1-D3)S1-Fc (Fc fusion)
chain: ELLDPCGYISPESPVVQLHSNFTAVCVLKEKCMDYFHVNANYIVWKTNHFTIPKEQYTIINRTASSVTFTDIASLNIQLTCNILTFGQLEQNVYGITIISGLPPEKPKNLSCIVNEGKKMRCEWDGGRETHLETNFTLKSEWATHKFADCKAKRDTPTSCTVDYSTVYFVNIEVWVEAENALGKVTSDHINFDPVYKVKPNPPHNLSVINSEELSSILKLTWTNPSIKSVIILKYNIQYRTKDASTWSQIPPEDTASTRSSFTVQDLKPFTEYVFRIRCMKEDGKGYWSDWSEEASGITYEDGGGGS
notes: D4-D6 replaced by one GGGGS repeat; No tags; not shown: IgG-Fc part; its beginning is printed as 'SCD'; detected with an anti-human IgG (Fc) antibody

The target of this experiment is T1, IL-6/soluble IL-6 receptor complex (human, UniProt P05231 30-212; P08887 20-358, limits assumed).
T1 construct: also called IL-6/sIL-6R complex; IL-6/sIL-6R
Description: ELISA, coated Fc fusion, IL-6 + sIL-6R titrated, anti-sIL-6R detection. The text has this: Comparison of the IL-6/sIL-6R Complex Binding Properties of sgp130Fc and sgp130(D1-D3)S_n-Fc (A) Material The 96-well Microlon microtiter plates were purchased from Greiner Bio-One (Frickenhausen, Germany). Recombinant human IL-6 and soluble IL-6 receptor (sIL-6R) were obtained from BioSource (Solingen, Germany) and R&D Systems (Wiesbaden, Germany), respectively. The primary anti-sIL-6R antibody (clone M91, mouse IgG1) was from Beckman Coulter (Krefeld, Germany). The secondary anti-mouse IgG HRP-conjugated antibody from GE Healthcare (Freiburg, Germany) was the same as in the Western blotting experiments (see Example 1, A and C). Ready-to-use Tetramethylbenzidin (TMB) HRP substrate was purchased from Sigma-Aldrich (Taufkirchen, Germany).
For quality control and comparison between different lots of sgp130Fc variants, a standard ELISA was designed. All steps except for coating were carried out at room temperature, all washing steps were performed three times with a volume of 250 µl, and all conditions were measured in triplicate. A 96 well microtiter plate was coated with 100 ng/Well of original sgp130Fc as an internal standard and an equimolar quantity of sgp130(D1-D3)S_n-Fc in 100 µl PBS at 4° C. overnight. Thus, sgp130Fc and its variants served as capture reagent, while the bound sIL-6R was detected (see below). After washing with 0.05% Tween-20/PBS, wells were blocked with 200 µl/Well 3% BSA/PBS for 2 h. Subsequently, the blocking solution was removed, and wells were incubated for 1 h with a 1:2 dilution series (100 µl/Well) of recombinant human IL-6 (3.2 µg/ml to 50 ng/ml) and sIL-6R (1.6 µg/ml to 25 ng/ml) in 3% BSA/PBS. After washing with 0.05% Tween-20/PBS, wells were incubated with the primary anti-sIL-6R antibody diluted 1:2,000 in 3% BSA/PBS (100 µl/Well) for 1 h. Another series of three washing steps with 0.05% Tween-20/PBS was followed by a 1-h incubation with the secondary anti-mouse IgG HRP-conjugated antibody at 1:5,000 (100 µl/Well). After washing with 0.05% Tween-20/PBS and subsequently with dH_2O, plates were incubated with 100 µl/Well TMB substrate for about 5 min (depending on the intensity of the developing blue colour). The substrate reaction was stopped by adding 100 µl/Well 0.5 M sulfuric acid to the wells. Finally, the $A450$ was measured in a microplate reader.
A general note: An ELISA detects its analyte on a solid surface through an enzyme-linked reagent.
In the case of B1, the binding result is given as “binds”.
For B2, the binding result was “binds”.
For B3 the value was “binds”.
For B4 the value was “binds”.
